Data taken from patent publication US20170306005A1 (NASCIENT, published 2017).
Substitutions are numbered along the chain they refer to.

Key:
human Fc-His-FBG = target: T1, human Fc-His-FBG (human, UniProt P24821 1974-2201); experiment: cell-based or functional assay
T1 sequence: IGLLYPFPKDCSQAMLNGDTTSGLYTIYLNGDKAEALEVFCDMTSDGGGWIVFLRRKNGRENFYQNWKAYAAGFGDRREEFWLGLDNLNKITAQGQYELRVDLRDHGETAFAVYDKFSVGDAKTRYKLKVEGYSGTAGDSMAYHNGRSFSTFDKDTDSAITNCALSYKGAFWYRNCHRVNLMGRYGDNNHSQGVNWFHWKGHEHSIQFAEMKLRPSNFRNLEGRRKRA

[1] = target: T2, human tenascin-R rCd4-His-FBG (rat; human, UniProt P05540 207-392, limits assumed); experiment: SPR, captured Fab, 25 C
T2 construct: domain: domains 3 and 4; C-terminal FBG fusion; also called Hu TNR; human TNR rCd4-His-FBG; not shown: 6His tag
T2 sequence (chain (part 1 of 2)): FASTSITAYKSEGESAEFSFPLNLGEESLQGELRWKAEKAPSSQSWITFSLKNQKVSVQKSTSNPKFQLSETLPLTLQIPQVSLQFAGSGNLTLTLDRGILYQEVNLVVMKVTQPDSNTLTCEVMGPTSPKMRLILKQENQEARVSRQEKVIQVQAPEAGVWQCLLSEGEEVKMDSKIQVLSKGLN
T2 sequence (chain (part 2 of 2)): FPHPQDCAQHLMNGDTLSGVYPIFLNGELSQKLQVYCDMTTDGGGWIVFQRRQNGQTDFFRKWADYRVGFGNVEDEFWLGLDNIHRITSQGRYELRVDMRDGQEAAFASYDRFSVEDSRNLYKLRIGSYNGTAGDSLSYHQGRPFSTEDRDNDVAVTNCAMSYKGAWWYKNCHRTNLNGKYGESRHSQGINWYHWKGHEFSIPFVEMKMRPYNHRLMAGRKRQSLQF
Method: (§1) Experiments were performed using a BIAcore T100 instrument with CM5 sensor chip according to the protocol provided with the Human Fab Capture Kit (GE, 28-9583-25). […] After reference signal subtraction, the data was fitted to a global 1:1 fit using the T100 BIAevaluation software (FIGS. 6 a-d).

[2] = target: T3, mouse tenascin-C rCd4-His-FBG (rat; mouse, UniProt P05540 207-392, limits assumed); experiment: SPR, captured Fab, 25 C
T3 construct: domain: domains 3 and 4; C-terminal FBG fusion; biotinylated in the ELISA screen; also called Mu TNC; mouse TNC rCd4-His-FBG; not shown: 6His tag
T3 sequence (chain (part 1 of 2)): T2 sequence (chain (part 1 of 2))
T3 sequence (chain (part 2 of 2)): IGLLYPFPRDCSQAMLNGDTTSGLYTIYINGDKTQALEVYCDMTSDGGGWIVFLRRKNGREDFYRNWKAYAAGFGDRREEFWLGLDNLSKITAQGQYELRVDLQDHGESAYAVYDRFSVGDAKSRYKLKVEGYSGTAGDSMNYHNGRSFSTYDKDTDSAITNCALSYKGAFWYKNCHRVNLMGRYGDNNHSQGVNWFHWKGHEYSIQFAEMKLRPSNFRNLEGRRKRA
Method: as §1

[3] = target: T4, rat tenascin-C rCd4-His-FBG (rat, UniProt P05540 207-392, limits assumed); experiment: SPR, captured Fab, 25 C
T4 construct: domain: domains 3 and 4; C-terminal FBG fusion; also called Rat TNC; rat TNC rCD4-His-FBG; not shown: 6His tag
T4 sequence (chain (part 1 of 2)): T2 sequence (chain (part 1 of 2))
T4 sequence (chain (part 2 of 2)): T3 sequence (chain (part 2 of 2)) with A72T
Method: as §1

[4] = target: T5, human tenascin-C rCd4-His-FBG (rat; human, UniProt P05540 207-392, limits assumed); experiment: SPR, captured Fab, 25 C
T5 construct: domain: domains 3 and 4; C-terminal FBG fusion; biotinylated in the ELISA and HTRF screens; also called Hu TNC; human TNC rCd4-His-FBG; not shown: 6His tag
T5 sequence (chain (part 1 of 2)): T2 sequence (chain (part 1 of 2))
T5 sequence (chain (part 2 of 2)): T1 sequence
Method: as §1

[5] = target: T5, human tenascin-C rCd4-His-FBG; experiment: SPR, 25 C
[6] = target: T2, human tenascin-R rCd4-His-FBG; experiment: SPR steady state, captured Fab, 25 C
Method: as §1

[7] = target: T3, mouse tenascin-C rCd4-His-FBG; experiment: SPR steady state, captured Fab, 25 C
Method: as §1

Human FGB-rCd4 = target: T6, Human FGB-rCd4; experiment: ELISA (DELFIA), antigen coated on the well, purified Fab at 50 nM, detected with anti-kappa or anti-lambda mAb and Europium-conjugated anti-mouse mAb
T6 construct: Not the same construct as m1, which has the FBG at the C terminus; also called human TNC FBG-rCD4; human tenascin-C FBG-rCd4-His (FBG at the N terminus of the rat Cd4 tag); not shown: rat Cd4 (domains 3 and 4) tag, the C-terminal His6 tag and the vector-derived junction residues of pBIOCAM4
T6 chain: T1 sequence

B1: Fab B12 (Fab, V domains shown)
VH: QVQLVESGGGLVQPGRSLRLSCAASGFTFDDYAMHWVRQAPGKGLEWVSGISGSGGSTYYADSVKGRFTISRDNAKNSLYLQMNSLRAEDTALYYCAKDISAVPDTFDIWGQGTMVTVSS
VL: DIQMTQSPASLPTPVGDRVTITCRASQYIQGFLNWYQQKPGKAPKLLIYDASNLETGVPSRFSGSGSGTDFTLTISSLQPEDFATYYCQQSYSTPQTFGQGTKVDIKR
notes: monomeric Fab
Q: What does the source list for B1?
A: IC50, inhibition of Fc-His-HuFBG-evoked IL-8 release, THP1-Blue cells (human Fc-His-FBG): 6.9 nM; IC50, inhibition of Fc-His-HuFBG-evoked alkaline phosphatase, THP1-Blue cells (human Fc-His-FBG): 1.7 nM; Kd [1]: 33.9 nM; koff [1]: 0.0473 s⁻¹; kon [1]: 1.4e+06 M⁻¹ s⁻¹; Kd [2]: 13 nM; koff [2]: 0.0675 s⁻¹; kon [2]: 5.22e+06 M⁻¹ s⁻¹; Kd [3]: 7.9 nM; koff [3]: 0.0748 s⁻¹; kon [3]: 9.46e+06 M⁻¹ s⁻¹; Kd [4]: 0.111 nM; koff [4]: 0.0003 s⁻¹; kon [4]: 2.66e+06 M⁻¹ s⁻¹; fold stronger affinity than 2A5 [5]: ~100 fold; Kd [6]: 36.1 nM; Kd [7]: 18.7 nM; binding result (Human FGB-rCd4): binds
